From patent publication US20230151106A1, “OFATUMUMAB FOR TREATING MS WHILE MAINTAINING SERUM IgG” (NOVARTIS AG, priority 2020, published 2023)
“Also recorded” adds a separate entry of the source. Read-outs that look alike come from different tables or passages of the source.

How the values were obtained:
MS patients [1] = conditions: human, in vivo
serum IgG [2] = conditions: in vivo
Method: (§3) In the present application serum Ig levels can preferably be determined by immunoturbidimetry. Preferably a Roche cobas® Analyzer was used, especially module c of the cobas® analyser. In a preferred embodiment Ig levels can be determined by using a cobas® c 311 analyzer. It is further preferred that IgG measurements are carried out as described in the cobas® leaflet “IGG-2 Tina-quant IgG Gen. 2”, preferably version 11.0 dated 2016-02 and IgM measurements as described in the leaflet “IGM-2 Tina-quant IgM Gen. 2”, preferably version 13.0 dated 2018-11.
(§4) Serum samples were preferably kept at 2-8° C. before measurement.
(§5) Patients were randomised (1:1) to receive either ofatumumab 20 mg sc injections every 4 weeks (after an initial loading regimen of 20 mg sc doses on Days 1, 7 and 14) or teriflunomide 14 mg orally once daily, for up to 30 months.
(§6) Serum IgG/IgM levels were monitored at baseline, Week (W) 4, W12 and every 12 weeks, see FIG. 1.

MS patients [3] = conditions: cited from earlier work
serum IgM = assay: Serum IgM levels in ASCLEPIOS I/II (Pool C2); type: in vivo, human
Method: In the present application serum Ig levels can preferably be determined by immunoturbidimetry. Preferably a Roche cobas® Analyzer was used, especially module c of the cobas® analyser.
as §4
ASCLEPIOS I and II are double-blind, double-dummy, active comparator-controlled, parallel-group, innovative, adaptive design, multicentre trials. Patients were randomised (1:1) to receive either ofatumumab 20 mg sc injections every 4 weeks (after an initial loading regimen of 20 mg sc doses on Days 1, 7 and 14) or teriflunomide 14 mg orally once daily, for up to 30 months.

[4] = test system: multiple sclerosis patients; conditions: in vivo
From the text: as §6

IgM = assay: Long term study (Example 5), IgM levels; type: in vivo, human; conditions: OMB long-term group, FIGS. 16 and 17
From the text: (§1) 2”, preferably version 13.0 dated 2018-11.
(§2) Patients were subjected to a long term treatment.

[5] = test system: multiple sclerosis patients; assay: Infections in relation to IgM/IgG levels <LLN vs >=LLN in ofatumumab MS studies
From the text: as §6

IgG levels = assay: Metanalysis of Example 1 versus Derfuss et al. (pooled OPERA), IgG levels; type: in vivo, human
From the text: In a metanalysis, the results of Example 1 and the results obtained by Derfuss et al. were compared.

CD20 receptor on B-cells = assay: Nonclinical ADCC activity comparison; type: cell-based; conditions: ofatumumab compared to ocrelizumab and rituximab
B cells = assay: B-cell repletion after study treatment discontinuation (Pool C2, OMS115102); type: in vivo, human; conditions: study OMS115102, approximately 48 weeks post study
serum IgG [6] = assay: Serum IgG levels in ASCLEPIOS I/II (Pool C2)
Method: as §3, §4, §5, §6

MS patients [7] = assay: General safety in MS clinical trials with ofatumumab (neutrophils, PML, hepatitis B, malignancy, cytopenia); conditions: human, in vivo
[8] = in vivo, sc, 20 mg
COVID-19 = conditions: for COVID-19 symptoms duration / Outcome: serious case
Method: Confirmed or suspected cases of COVID-19 infection in patients receiving ofatumumab in the open-label extension study ALITHIOS were reviewed (data cutoff: Dec. 21, 2020)
COVID-19 cases were classified as confirmed if SARS-CoV2 positive test results were available, or patient was reported to be diagnosed with COVID-19
Suspected cases of COVID-19 were classified as suspected if without a positive SARS-CoV2 test or definitive diagnosis
The following COVID-19 case characteristics were assessed:
*Serious criteria is based on the regulatory reporting definition established by ICH, for the purposes of regulatory reporting obligations, and consists of fatal, life-threatening, hospitalization and medically significant

CD19+ B-cells = assay: CD19+ B-cell depletion in ASCLEPIOS; type: in vivo, human
Method: ASCLEPIOS I and II are double-blind, double-dummy, active comparator-controlled, parallel-group, innovative, adaptive design, multicentre trials. Patients were randomised (1:1) to receive either ofatumumab 20 mg sc injections every 4 weeks (after an initial loading regimen of 20 mg sc doses on Days 1, 7 and 14) or teriflunomide 14 mg orally once daily, for up to 30 months. […] Patients aged 18-55 years with an Expanded Disability Status Scale (EDSS) score (according to Kurtzke, Neurology. 1983, Nov; 33(11): 1444-52) of 0-5.5 at screening who experienced ≥1 relapse in the past year or ≥2 relapses in the past 2 years or a positive gadolinium-enhancing (Gd+) MRI scan during the year before randomisation were included.

IgG = assay: Long term study (Example 5), IgG levels; type: in vivo, human; conditions: OMB long-term group, FIG. 14
From the text: as §1, §2

CD20 receptor = target: T1, CD20 receptor (Homo sapiens, UniProt P11836); assay: B-cell binding studies, off-rate; conditions: in comparison to rituximab
T1 construct: endogenous in cells
T1 sequence (P11836 1-297): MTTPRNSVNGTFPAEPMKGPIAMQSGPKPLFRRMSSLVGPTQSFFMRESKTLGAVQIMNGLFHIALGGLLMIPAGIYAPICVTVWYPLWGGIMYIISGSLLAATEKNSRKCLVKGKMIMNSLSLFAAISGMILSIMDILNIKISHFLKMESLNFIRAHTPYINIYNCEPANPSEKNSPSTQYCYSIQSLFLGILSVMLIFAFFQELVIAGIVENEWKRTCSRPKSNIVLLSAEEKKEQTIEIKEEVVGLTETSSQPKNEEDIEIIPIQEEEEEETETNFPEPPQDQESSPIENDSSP

ofatumumab: recombinant human monoclonal immunoglobulin G1 (IgG1) antibody that binds to human CD20
cases of PML or Hepatitis B reactivation or serious potential OI (MS patients [1]): no cases | incidence of malignancy (MS patients [1]): no increased incidence | mean and median values of neutrophil count (MS patients [1]): remained within the normal ranges | risk of neutropenia (MS patients [1]): No risk of neutropenia | patients with IgG below LLN, n/N (serum IgG [2]): 134/944 | suppression of gadolinium (Gd) T1 lesions when compared to Aubagio (MS patients [3]; ASCLEPIOS I/II): highly significant suppression | annualized relapse rate (ARR) (MS patients [3]; ASCLEPIOS I): 0.11 | reduction in annualized relapse rate (ARR) compared to Aubagio (teriflunomide) (MS patients [3]; ASCLEPIOS I): 50.5% | annualized relapse rate (ARR) (MS patients [3]; ASCLEPIOS II): 0.10 | reduction in annualized relapse rate (ARR) compared to Aubagio (teriflunomide) (MS patients [3]; ASCLEPIOS II): 58.5% | relative risk reduction in 3-month confirmed disability progression (CDP) versus Aubagio (MS patients [3]; pre-specified pooled analyses): 34.4% | relative risk reduction in 6-month CDP versus Aubagio (MS patients [3]; pre-specified pooled analyses): 32.5% | IgM decline with treatment (serum IgM; MS studies): some level of IgM decline but the majority of the patients remained above LLN | change in mean IgM (serum IgM; Week 96 completers, Pool C2): -0.537 g/L | decline in mean IgM (serum IgM; Week 96 completers, Pool C2): 38.8% | proportion of patients with IgM levels below LLN and 10% below the LLN versus teriflunomide (serum IgM; any time post baseline and at Week 96, FIG. 8): higher proportion | patients with IgM levels on or above the LLN (serum IgM; any time post-baseline, FIG. 9): 82-89% | change in mean IgM value (serum IgM; baseline to Week 48, Pool C2): -0.420 g/L | decrease in mean IgM value (serum IgM; baseline to Week 48, Pool C2): 30.9% | mean serum IgM levels versus reference range (serum IgM; over time, reference range 0.40-2.30 g/L): remained well within the reference ranges | Infections observed after the first drop of IgG<LLN [4]: 45.5% | Infections observed after the first drop of IgG<LLN, number of patients [4]: 61 | Number of patients with at least 1 infection AE by Grade: Grade 4 [4]: 0 n | infection AE by outcome: Recovered/resolved [4]: 0 n | infection AE by outcome: Recovered/resolved with sequelae [4]: 0 n | infection AE by outcome: Recovering/resolving [4]: 0 n | patients who received immunoglobulin substitution therapy for decrease in IgG/M [4]: none of the patients | patients who reported an infection post study drug discontinuation [4]: six of 32 | serious opportunistic infections [4]: no cases | IgM levels with longer duration (IgM): levels remained above the lower limit of normal | Number of patients with at least 1 infection AE by Grade: Grade 4 ([5]; IgG <LLN, N = 134): 0 n | infection AE by outcome: Fatal ([5]; IgG <LLN, N = 134): 0 n | infection AE by outcome: Fatal ([5]; IgM <LLN, N = 167): 0 n | infection AE by outcome: Fatal ([5]; IgM ≥LLN, N = 777): 0 n | increase of IgG levels (IgG levels; after two years (96 weeks)): about 3% | effect on IgG levels on the long term (IgG levels; in vivo): sustains and even increases IgG levels | ADCC activity (CD20 receptor on B-cells): No relevant difference | B-cell repletion (B cells): B cells for all subjects were repleted, with the exception of one subject | recovery of IgG levels after reduction until Week 36 (serum IgG [6]; ASCLEPIOS I and II, FIG. 7): recovered up to baseline levels by W72 | change in mean serum IgG value from baseline (serum IgG [6]; Week 96): +0.249 g/L | patients with IgG levels 20% below the LLN (serum IgG [6]; Week 96 (Week-96 completers)): no ofatumumab patients | increase in mean serum IgG value from baseline (serum IgG [6]; Week 96, ASCLEPIOS studies): 2.2% | proportion of patients with IgG levels below the LLN versus teriflunomide (serum IgG [6]; any time post-baseline, FIG. 8): lower proportion | patients with IgG levels on or above the LLN (serum IgG [6]; any time post-baseline, FIG. 9): > 85% | proportion of patients with IgG below LLN (serum IgG [6]; anytime during post baseline visit): 14.2% | turning point at which the trend of decreasing IgG levels reverses (serum IgG [6]; in vivo): 36 week | mean serum IgG over time compared to baseline (serum IgG [6]; over 96 weeks treatment): no decrease in mean values; also recorded: No decrease in mean serum IgG | decrease of IgG levels (serum IgG [6]; week 72 and thereafter): no decrease | cytopenia during therapy (MS patients [7]): No cytopenia | half-life at steady state [8]: approximately 16 days | COVID-19 outcome: Ongoing (COVID-19; Non-serious (n = 29)): 0 | COVID-19 outcome: Recovered (COVID-19; Non-serious (n = 29)): 29 | COVID-19 outcome: Recovering (COVID-19; Non-serious (n = 29)): 0 | COVID-19 outcome: Recovered (COVID-19; Serious (n = 6)): 5 | cases with no change in ofatumumab treatment required (COVID-19; confirmed COVID-19 infection): 21 cases | cases with treatment temporarily interrupted due to confirmed COVID-19 infection (COVID-19; human, in vivo): 5 cases | cases with complete recovery (COVID-19; of 35 confirmed cases): 34 cases | confirmed COVID-19 cases, Non-serious (COVID-19; of 35 confirmed cases): Non-serious (n = 29) | COVID-19 symptoms duration (COVID-19; Patient ID 5409018): ~50 days | Outcome (COVID-19; Patient ID 5409018): Complete | COVID-19 symptoms duration (COVID-19; Patient ID 5608014): 18 days | Outcome (COVID-19; Patient ID 5608014): Complete | COVID-19 symptoms duration (COVID-19; Patient ID 5800004): ~30 days | Outcome (COVID-19; Patient ID 5800004): Fatal | COVID-19 symptoms duration (COVID-19; Patient ID 5800043): 11 days | Outcome (COVID-19; Patient ID 5800043): Complete | COVID-19 symptoms duration (COVID-19; Patient ID 5801015): 15 days | Outcome (COVID-19; Patient ID 5801015): Complete | COVID-19 symptoms duration (COVID-19; Patient ID 5806001): 10 days | Outcome (COVID-19; Patient ID 5806001): Complete | patients with CD19+ B-cells below LLN (CD19+ B-cells; Week 1): 77.0% | patients with CD19+ B-cells below LLN, n/M (CD19+ B-cells; Week 1): 338/439 | patients with CD19+ B-cells below LLN (CD19+ B-cells; Week 1, listed as OMB): (77.0) % | patients with CD19+ B-cells below LLN (CD19+ B-cells; Week 2): 95.0% | patients with CD19+ B-cells below LLN, n/M (CD19+ B-cells; Week 2): 420/442 | patients with CD19+ B-cells below LLN (CD19+ B-cells; Week 2, listed as OMB): (95.0) % | patients with CD19+ B-cells below LLN (CD19+ B-cells; Week 4): (97.8) % | patients with CD19+ B-cells below LLN, n/M (CD19+ B-cells; Week 4): 440/450 | patients with CD19+ B-cells below LLN (CD19+ B-cells; Week 12): 99.3% | patients with CD19+ B-cells below LLN, n/M (CD19+ B-cells; Week 12): 440/443 | patients with CD19+ B-cells below LLN (CD19+ B-cells; Week 12, listed as OMB): (99.3) % | patients with CD19+ B-cells below LLN (CD19+ B-cells; Week 24): (98.4) % | patients with CD19+ B-cells below LLN, n/M (CD19+ B-cells; Week 24): 422/429 | patients with CD19+ B-cells below LLN (CD19+ B-cells; Week 36): (98.8) % | patients with CD19+ B-cells below LLN, n/M (CD19+ B-cells; Week 36): 415/420 | patients with CD19+ B-cells below LLN (CD19+ B-cells; Week 48): (98.3) % | patients with CD19+ B-cells below LLN, n/M (CD19+ B-cells; Week 48): 397/404 | patients with CD19+ B-cells below LLN (CD19+ B-cells; Week 60): (96.7) % | patients with CD19+ B-cells below LLN, n/M (CD19+ B-cells; Week 60): 385/398 | patients with CD19+ B-cells below LLN (CD19+ B-cells; Week 72): (98.2) % | patients with CD19+ B-cells below LLN, n/M (CD19+ B-cells; Week 72): 379/386 | patients with CD19+ B-cells below LLN (CD19+ B-cells; Week 84): (98.9) % | patients with CD19+ B-cells below LLN, n/M (CD19+ B-cells; Week 84): 260/263 | patients with CD19+ B-cells below LLN (CD19+ B-cells; Week 96): (99.4) % | patients with CD19+ B-cells below LLN, n/M (CD19+ B-cells; Week 96): 161/162 | patients with CD19+ B-cells below LLN (CD19+ B-cells; Week 108): (97.9) % | patients with CD19+ B-cells below LLN, n/M (CD19+ B-cells; Week 108): 93/95 | patients with CD19+ B-cells below LLN (CD19+ B-cells; Week 120): (100) % | patients with CD19+ B-cells below LLN, n/M (CD19+ B-cells; Week 120): 28/28 | median CD19+ B-cell count (CD19+ B-cells; from Week 2 onwards): zero | patients in whom CD19+ B-cell depletion was maintained (CD19+ B-cells; throughout the treatment period): > 96% | IgG levels over long-term follow-up (IgG): stable over the long-term follow-up of >4 years | off-rate (dissociation rate of the antibody from the CD20 receptor) (CD20 receptor): lower off-rate
